T1: IL-18 receptor (IL-18Rα/IL-18Rβ) overexpressed on HEK-Blue IL-18 cells (Homo sapiens (Human), UniProt Q13478 19-541; O95256 20-599)
T1 sequence 1: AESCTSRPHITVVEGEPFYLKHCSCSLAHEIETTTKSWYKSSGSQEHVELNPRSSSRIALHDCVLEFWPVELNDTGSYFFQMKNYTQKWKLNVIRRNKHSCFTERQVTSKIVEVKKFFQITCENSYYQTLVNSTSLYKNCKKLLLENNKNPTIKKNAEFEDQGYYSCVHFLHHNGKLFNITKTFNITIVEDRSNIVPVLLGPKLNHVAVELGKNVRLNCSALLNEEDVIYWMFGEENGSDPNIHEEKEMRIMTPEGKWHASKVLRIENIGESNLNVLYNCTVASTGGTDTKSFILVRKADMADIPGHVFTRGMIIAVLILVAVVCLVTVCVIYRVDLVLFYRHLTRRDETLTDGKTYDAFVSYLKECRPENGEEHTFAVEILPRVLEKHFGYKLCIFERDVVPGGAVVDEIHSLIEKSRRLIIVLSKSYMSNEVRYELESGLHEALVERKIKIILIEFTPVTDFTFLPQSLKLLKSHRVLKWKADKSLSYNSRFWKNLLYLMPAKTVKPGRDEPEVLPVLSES
T1 sequence 2: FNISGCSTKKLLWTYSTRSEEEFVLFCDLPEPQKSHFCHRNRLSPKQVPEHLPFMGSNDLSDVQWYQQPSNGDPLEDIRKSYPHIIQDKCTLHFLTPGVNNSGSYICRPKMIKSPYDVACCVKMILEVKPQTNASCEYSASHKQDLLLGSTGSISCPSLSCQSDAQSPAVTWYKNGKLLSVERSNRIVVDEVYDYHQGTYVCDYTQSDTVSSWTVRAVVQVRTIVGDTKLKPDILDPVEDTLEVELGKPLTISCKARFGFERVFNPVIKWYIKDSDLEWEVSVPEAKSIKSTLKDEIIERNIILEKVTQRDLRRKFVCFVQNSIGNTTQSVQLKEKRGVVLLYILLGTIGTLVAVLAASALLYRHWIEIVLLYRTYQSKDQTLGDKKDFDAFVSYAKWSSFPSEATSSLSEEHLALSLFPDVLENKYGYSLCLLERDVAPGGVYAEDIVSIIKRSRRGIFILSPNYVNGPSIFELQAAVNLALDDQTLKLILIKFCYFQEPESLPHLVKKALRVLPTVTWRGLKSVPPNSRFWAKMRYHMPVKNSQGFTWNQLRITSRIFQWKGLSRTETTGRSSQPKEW

B1: DGL218 (bispecific antibody)
heavy 1: QVQLVESGGGLVQAGGSLRLSCAASGRTFSKHAMGWFRQAPGKEREFVAAIDWSGGSTYYADSVKGRFTISRDNAKNTVYLQMDSLKPEDTAVYYCAADSYTDYAQLWLPELESEYDYWGQGTLVTVSSCPPCPAPEAAGAPSVFLFPPKPKDTLMISRTPEVTCVVVDVSHEDPEVKFNWYVDGVEVHNAKTKPREEQYNSTYRVVSVLTVLHQDWLNGKEYKCKVSNKALPAPIEKTISKAKGQPREPQVCTLPPSRDELTKNQVSLSCAVKGFYPSDIAVEWESNGQPENNYKTTPPVLDSDGSFFLVSKLTVDKSRWQQGNVFSCSVMHEALHNHYTQKSLSLSPGWSHPQFEK
heavy 2: not shown
B2: DGL212 (bispecific antibody)
heavy 1: QVQLVESGGGLVQAGGSLRLSCAASGRTFSKHAMGWFRQAPGKEREFVAAIDWSGGSTYYADSVKGRFTISRDNAKNTVYLQMDSLKPEDTAVYYCAADSYTDYAQLWLPELESEYDYWGQGTLVTVSSDKTHTCPPCPAPEAAGAPSVFLFPPKPKDTLMISRTPEVTCVVVDVSHEDPEVKFNWYVDGVEVHNAKTKPREEQYNSTYRVVSVLTVLHQDWLNGKEYKCKVSNKALPAPIEKTISKAKGQPREPQVCTLPPSRDELTKNQVSLSCAVKGFYPSDIAVEWESNGQPENNYKTTPPVLDSDGSFFLVSKLTVDKSRWQQGNVFSCSVMHEALHNHYTQKSLSLSPGWSHPQFEK
heavy 2: not shown
B3: DGL216 (bispecific antibody)
heavy 1: QVQLVESGGGLVQAGGSLRLSCAASGRTFSKHAMGWFRQAPGKEREFVAAIDWSGGSTYYADSVKGRFTISRDNAKNTVYLQMDSLKPEDTAVYYCAADSYTDYAQLWLPELESEYDYWGQGTLVTVSSDKTHTCPPCPAPEAAGAPSVFLFPPKPKDTLMISRTPEVTCVVVDVSHEDPEVKFNWYVDGVEVHNAKTKPREEQYNSTYRVVSVLTVLHQDWLNGKEYKCKVSNKALPAPIEKTISKAKGQPREPQVCTLPPSRDELTKNQVSLSCAVKGFYPSDIAVEWESNGQPENNYKTTPPVLDSDGSFFLVSKLTVDKSRWQQGNVFSCSVMHEALHNHYTQKSLSLSPGWSHPQFEK
heavy 2: QLQLVESGGGLVQAGGSLRLSCAASRSITFSHNVMGWYRQAPGKQRELVASIGSGGSTNYVDSVKGRATISRDNAKKTVYLQMNSLKPEDTAVYYCGVVVGVYRGSLGQGTLVTVSSGGGGSGGGGSGGGGSGGGGSCPPCPAPEAAGAPSVFLFPPKPKDTLMISRTPEVTCVVVDVSHEDPEVKFNWYVDGVEVHNAKTKPREEQYNSTYRVVSVLTVLHQDWLNGKEYKCKVSNKALPAPIEKTISKAKGQPREPQVYTLPPCRDELTKNQVSLWCLVKGFYPSDIAVEWESNGQPENNYKTTPPVLDSDGSFFLYSKLTVDKSRWQQGNVFSCSVMHEALHNHYTQKSLSLSPGEPEA
B4: DGL215 (bispecific antibody)
heavy 1: QVQLVESGGGLVQAGGSLRLSCAASGRTFSKHAMGWFRQAPGKEREFVAAIDWSGGSTYYADSVKGRFTISRDNAKNTVYLQMDSLKPEDTAVYYCAADSYTDYAQLWLPELESEYDYWGQGTLVTVSSDKTHTCPPCPAPEAAGAPSVFLFPPKPKDTLMISRTPEVTCVVVDVSHEDPEVKFNWYVDGVEVHNAKTKPREEQYNSTYRVVSVLTVLHQDWLNGKEYKCKVSNKALPAPIEKTISKAKGQPREPQVCTLPPSRDELTKNQVSLSCAVKGFYPSDIAVEWESNGQPENNYKTTPPVLDSDGSFFLVSKLTVDKSRWQQGNVFSCSVMHEALHNHYTQKSLSLSPGWSHPQFEK
heavy 2: QLQLVESGGGLVQAGGSLRLSCAASRSITFSHNVMGWYRQAPGKQRELVASIGSGGSTNYVDSVKGRATISRDNAKKTVYLQMNSLKPEDTAVYYCGVVVGVYRGSLGQGTLVTVSSPLAPCPPCPAPEAAGAPSVFLFPPKPKDTLMISRTPEVTCVVVDVSHEDPEVKFNWYVDGVEVHNAKTKPREEQYNSTYRVVSVLTVLHQDWLNGKEYKCKVSNKALPAPIEKTISKAKGQPREPQVYTLPPCRDELTKNQVSLWCLVKGFYPSDIAVEWESNGQPENNYKTTPPVLDSDGSFFLYSKLTVDKSRWQQGNVFSCSVMHEALHNHYTQKSLSLSPGEPEA
B5: DGL214 (bispecific antibody)
heavy 1: QVQLVESGGGLVQAGGSLRLSCAASGRTFSKHAMGWFRQAPGKEREFVAAIDWSGGSTYYADSVKGRFTISRDNAKNTVYLQMDSLKPEDTAVYYCAADSYTDYAQLWLPELESEYDYWGQGTLVTVSSDKTHTCPPCPAPEAAGAPSVFLFPPKPKDTLMISRTPEVTCVVVDVSHEDPEVKFNWYVDGVEVHNAKTKPREEQYNSTYRVVSVLTVLHQDWLNGKEYKCKVSNKALPAPIEKTISKAKGQPREPQVCTLPPSRDELTKNQVSLSCAVKGFYPSDIAVEWESNGQPENNYKTTPPVLDSDGSFFLVSKLTVDKSRWQQGNVFSCSVMHEALHNHYTQKSLSLSPGWSHPQFEK
heavy 2: not shown
B6: DGL213 (bispecific antibody)
heavy 1: QVQLVESGGGLVQAGGSLRLSCAASGRTFSKHAMGWFRQAPGKEREFVAAIDWSGGSTYYADSVKGRFTISRDNAKNTVYLQMDSLKPEDTAVYYCAADSYTDYAQLWLPELESEYDYWGQGTLVTVSSDKTHTCPPCPAPEAAGAPSVFLFPPKPKDTLMISRTPEVTCVVVDVSHEDPEVKFNWYVDGVEVHNAKTKPREEQYNSTYRVVSVLTVLHQDWLNGKEYKCKVSNKALPAPIEKTISKAKGQPREPQVCTLPPSRDELTKNQVSLSCAVKGFYPSDIAVEWESNGQPENNYKTTPPVLDSDGSFFLVSKLTVDKSRWQQGNVFSCSVMHEALHNHYTQKSLSLSPGWSHPQFEK
heavy 2: QLQLVESGGGLVQAGGSLRLSCAASRSITFSHNVMGWYRQAPGKQRELVASIGSGGSTNYVDSVKGRATISRDNAKKTVYLQMNSLKPEDTAVYYCGVVVGVYRGSLGQGTLVTVSSCPPCPAPEAAGAPSVFLFPPKPKDTLMISRTPEVTCVVVDVSHEDPEVKFNWYVDGVEVHNAKTKPREEQYNSTYRVVSVLTVLHQDWLNGKEYKCKVSNKALPAPIEKTISKAKGQPREPQVYTLPPCRDELTKNQVSLWCLVKGFYPSDIAVEWESNGQPENNYKTTPPVLDSDGSFFLYSKLTVDKSRWQQGNVFSCSVMHEALHNHYTQKSLSLSPGEPEA
B7: DGL211 (bispecific antibody)
heavy 1: QVQLVESGGGLVQAGGSLRLSCAASGRTFSKHAMGWFRQAPGKEREFVAAIDWSGGSTYYADSVKGRFTISRDNAKNTVYLQMDSLKPEDTAVYYCAADSYTDYAQLWLPELESEYDYWGQGTLVTVSSEKSYGPPCPPCPAPEAAGAPSVFLFPPKPKDTLMISRTPEVTCVVVDVSHEDPEVKFNWYVDGVEVHNAKTKPREEQYNSTYRVVSVLTVLHQDWLNGKEYKCKVSNKALPAPIEKTISKAKGQPREPQVCTLPPSRDELTKNQVSLSCAVKGFYPSDIAVEWESNGQPENNYKTTPPVLDSDGSFFLVSKLTVDKSRWQQGNVFSCSVMHEALHNHYTQKSLSLSPGWSHPQFEK
heavy 2: QLQLVESGGGLVQAGGSLRLSCAASRSITFSHNVMGWYRQAPGKQRELVASIGSGGSTNYVDSVKGRATISRDNAKKTVYLQMNSLKPEDTAVYYCGVVVGVYRGSLGQGTLVTVSSEKSYGPPCPPCPAPEAAGAPSVFLFPPKPKDTLMISRTPEVTCVVVDVSHEDPEVKFNWYVDGVEVHNAKTKPREEQYNSTYRVVSVLTVLHQDWLNGKEYKCKVSNKALPAPIEKTISKAKGQPREPQVYTLPPCRDELTKNQVSLWCLVKGFYPSDIAVEWESNGQPENNYKTTPPVLDSDGSFFLYSKLTVDKSRWQQGNVFSCSVMHEALHNHYTQKSLSLSPGEPEA
B8: DGL217 (bispecific antibody)
heavy 1: QVQLVESGGGLVQAGGSLRLSCAASGRTFSKHAMGWFRQAPGKEREFVAAIDWSGGSTYYADSVKGRFTISRDNAKNTVYLQMDSLKPEDTAVYYCAADSYTDYAQLWLPELESEYDYWGQGTLVTVSSDKTHTCPPCPAPEAAGAPSVFLFPPKPKDTLMISRTPEVTCVVVDVSHEDPEVKFNWYVDGVEVHNAKTKPREEQYNSTYRVVSVLTVLHQDWLNGKEYKCKVSNKALPAPIEKTISKAKGQPREPQVCTLPPSRDELTKNQVSLSCAVKGFYPSDIAVEWESNGQPENNYKTTPPVLDSDGSFFLVSKLTVDKSRWQQGNVFSCSVMHEALHNHYTQKSLSLSPGWSHPQFEK
heavy 2: QLQLVESGGGLVQAGGSLRLSCAASRSITFSHNVMGWYRQAPGKQRELVASIGSGGSTNYVDSVKGRATISRDNAKKTVYLQMNSLKPEDTAVYYCGVVVGVYRGSLGQGTLVTVSSEKSYGPPCPPCPAPEAAGAPSVFLFPPKPKDTLMISRTPEVTCVVVDVSHEDPEVKFNWYVDGVEVHNAKTKPREEQYNSTYRVVSVLTVLHQDWLNGKEYKCKVSNKALPAPIEKTISKAKGQPREPQVYTLPPCRDELTKNQVSLWCLVKGFYPSDIAVEWESNGQPENNYKTTPPVLDSDGSFFLYSKLTVDKSRWQQGNVFSCSVMHEALHNHYTQKSLSLSPGEPEA

What follows are binders tested against T1, IL-18 receptor (IL-18Rα/IL-18Rβ) … (assay: cell-based or functional assay).
B1 was tested, and the “HEK-Blue IL-18: Abs 405 at 100 nM” value was 1.3 Abs and the “HEK-Blue IL-18: Fold over Background” value was 5.5 fold.
B2 was tested, and the “HEK-Blue IL-18: Abs 405 at 100 nM” value was 1.4 Abs and the “HEK-Blue IL-18: Fold over Background” value was 6.2 fold.
With B3 the “HEK-Blue IL-18: Abs 405 at 100 nM” value was 0.8 Abs and the “HEK-Blue IL-18: Fold over Background” value was 3.4 fold.
With B4 the “HEK-Blue IL-18: Abs 405 at 100 nM” value was 1.4 Abs and the “HEK-Blue IL-18: Fold over Background” value was 6.1 fold.
With B5 the “HEK-Blue IL-18: Abs 405 at 100 nM” value was 1.1 Abs and the “HEK-Blue IL-18: Fold over Background” value was 4.7 fold.
With B6 the “HEK-Blue IL-18: Abs 405 at 100 nM” value was 1.5 Abs and the “HEK-Blue IL-18: Fold over Background” value was 6.4 fold.
With B7 the “HEK-Blue IL-18: Abs 405 at 100 nM” value was 1.5 Abs and the “HEK-Blue IL-18: Fold over Background” value was 6.7 fold.
With B8 the “HEK-Blue IL-18: Abs 405 at 100 nM” value was 1.3 Abs and the “HEK-Blue IL-18: Fold over Background” value was 5.6 fold.

From patent US20240209100A1 (DIAGONAL THERAPEUTICS, published 2024)
